The Human Domainome abundance scans (Beltran et al. 2025)
± gives the uncertainty stated by the source.

B1: Ankyrin-3, residues 4094 to 4171; numbered along this chain, Q12955 (parent)
chain: MAIVADHLGLSWTELARELNFSVDEINQIRVENPNSLISQSFMLLKKWVTRDGKNATTDALTSVLTKINRIDIVTLLE
B2: 3'-5' exoribonuclease 1, residues 65 to 114; numbered along this chain, Q8IV48 (parent)
chain: VYKEIAITNGCINRMSKEELRAKLSEFKLETRGVKDVLKKRLKNYYKKQK

Variants of: B1
Test: abundance fitness (aPCA) (normalised: wild type 0, dead -1); higher = more abundant; growth selection in yeast, the domain comes from the species named
Conditions: Homo sapiens
Work on G9P yielded an abundance fitness of -0.868 ± 0.12. In the case of V74N, the abundance fitness is reported as -0.777 ± 0.33. Work on E32D yielded an abundance fitness of 0.011 ± 0.085. Work on D52V yielded an abundance fitness of -0.575 ± 0.076. Variant E14G has an abundance fitness of -0.426 ± 0.063. For V23W, the abundance fitness was -0.049 ± 0.073. In the case of E32G, the abundance fitness is reported as -0.202 ± 0.043. Variant L65I has an abundance fitness of -0.847 ± 0.32. N35W gave an abundance fitness of -0.487 ± 0.14. Variant V64C has an abundance fitness of 0.05 ± 0.12. In the case of T66N, the abundance fitness is reported as -0.112 ± 0.12. With L10S the abundance fitness was 0.081 ± 0.053. Variant A5K has an abundance fitness of -0.648 ± 0.18. Work on N55P yielded an abundance fitness of -0.603 ± 0.094. Q40H showed an abundance fitness of -0.622 ± 0.18. I38E gave an abundance fitness of 0.15 ± 0.075. In the case of R70W, the abundance fitness is reported as -0.795 ± 0.11. F42D showed an abundance fitness of 0.165 ± 0.086. With S36F the abundance fitness was -0.717 ± 0.27. Variant K54T has an abundance fitness of -0.121 ± 0.082. In the case of L77R, the abundance fitness is reported as -0.93 ± 0.13. F42L showed an abundance fitness of -0.063 ± 0.065. S39D showed an abundance fitness of -0.013 ± 0.2. L76V showed an abundance fitness of 0.026 ± 0.058. L8Y gave an abundance fitness of -0.63 ± 0.3. Variant D6W has an abundance fitness of -0.517 ± 0.079. Work on D59H yielded an abundance fitness of -0.058 ± 0.15. L15G gave an abundance fitness of -0.93 ± 0.13. In the case of A56I, the abundance fitness is reported as -0.298 ± 0.16. Work on R17F yielded an abundance fitness of -0.108 ± 0.15. For I68C, the abundance fitness was -0.402 ± 0.17. In the case of R51G, the abundance fitness is reported as -0.499 ± 0.082. For D52G, the abundance fitness was -0.625 ± 0.066. N27P showed an abundance fitness of -0.926 ± 0.39. With E32Q the abundance fitness was -0.1 ± 0.14. S63R showed an abundance fitness of -0.004 ± 0.059. With T66W the abundance fitness was -0.173 ± 0.053. With N69D the abundance fitness was -0.178 ± 0.12. Work on L44P yielded an abundance fitness of -0.867 ± 0.15. G53S showed an abundance fitness of -0.325 ± 0.046. In the case of K67H, the abundance fitness is reported as -0.247 ± 0.16. T75D gave an abundance fitness of -0.155 ± 0.13. Work on D52C yielded an abundance fitness of -0.549 ± 0.17. Variant K47H has an abundance fitness of -0.11 ± 0.31. In the case of M43H, the abundance fitness is reported as 0.014 ± 0.11. I71P showed an abundance fitness of -0.046 ± 0.063. Q40V gave an abundance fitness of -0.894 ± 0.15. S11N gave an abundance fitness of 0.009 ± 0.23. N27Q gave an abundance fitness of 0.012 ± 0.085. A56H showed an abundance fitness of -0.296 ± 0.18. For T62N, the abundance fitness was -0.44 ± 0.48. Variant W12L has an abundance fitness of -0.838 ± 0.11. Q40F gave an abundance fitness of -0.74 ± 0.41. In the case of K67P, the abundance fitness is reported as -0.646 ± 0.2. Variant F21E has an abundance fitness of -0.997 ± 0.2. R51C showed an abundance fitness of -0.744 ± 0.26. Work on L10I yielded an abundance fitness of -0.096 ± 0.19. For K47L, the abundance fitness was -0.099 ± 0.045. For N20I, the abundance fitness was -0.609 ± 0.31. With L8A the abundance fitness was -1.07 ± 0.23. P34S gave an abundance fitness of -0.145 ± 0.05. Variant F21I has an abundance fitness of -0.665 ± 0.21. P34T showed an abundance fitness of -0.366 ± 0.078. Work on I71D yielded an abundance fitness of 0.307 ± 0.22. S39P gave an abundance fitness of -0.685 ± 0.13. T13N gave an abundance fitness of -0.309 ± 0.19. Work on L10C yielded an abundance fitness of -0.016 ± 0.089. In the case of N20M, the abundance fitness is reported as -0.113 ± 0.086. L61M showed an abundance fitness of -0.223 ± 0.12. D24K gave an abundance fitness of -0.195 ± 0.087. For I26E, the abundance fitness was -0.848 ± 0.17. N27C gave an abundance fitness of -0.238 ± 0.099. In the case of I73P, the abundance fitness is reported as -0.858 ± 0.17. D24N showed an abundance fitness of -0.197 ± 0.2. Work on M43P yielded an abundance fitness of -0.892 ± 0.14. E18S gave an abundance fitness of -0.625 ± 0.095. A60S showed an abundance fitness of -0.134 ± 0.071. For A5C, the abundance fitness was -0.359 ± 0.12. Work on T13V yielded an abundance fitness of -0.041 ± 0.055. With I73C the abundance fitness was -0.695 ± 0.16. Variant S11R has an abundance fitness of -0.965 ± 0.12. With F42I the abundance fitness was -0.03 ± 0.14. For A16L, the abundance fitness was -0.996 ± 0.15. L45H gave an abundance fitness of -0.449 ± 0.25. K67N gave an abundance fitness of -0.48 ± 0.25. Variant I68Q has an abundance fitness of -0.806 ± 0.24. A2T gave an abundance fitness of 0.077 ± 0.06. Work on N33E yielded an abundance fitness of 0.055 ± 0.075. In the case of T62Y, the abundance fitness is reported as -0.12 ± 0.13. For G53V, the abundance fitness was -0.672 ± 0.089. W48G showed an abundance fitness of -0.811 ± 0.25. For I26C, the abundance fitness was -0.561 ± 0.14. For L65R, the abundance fitness was -0.902 ± 0.07. Variant G53L has an abundance fitness of -0.832 ± 0.13. L10E gave an abundance fitness of 0.05 ± 0.071. Q40G showed an abundance fitness of -0.74 ± 0.086. L76H showed an abundance fitness of -0.064 ± 0.12. In the case of T50A, the abundance fitness is reported as 0.097 ± 0.059. For T13P, the abundance fitness was 0.101 ± 0.058. Variant L19M has an abundance fitness of -0.33 ± 0.14. Variant R70K has an abundance fitness of -0.393 ± 0.24. H7T gave an abundance fitness of -0.175 ± 0.069. Work on Q28Y yielded an abundance fitness of -0.298 ± 0.3. With T13W the abundance fitness was -0.707 ± 0.1. G53P gave an abundance fitness of -0.149 ± 0.051. For I3Y, the abundance fitness was -0.486 ± 0.16. W48V showed an abundance fitness of -0.887 ± 0.29. M1I gave an abundance fitness of -0.321 ± 0.37. I38M gave an abundance fitness of 0.009 ± 0.088. With I68P the abundance fitness was -0.37 ± 0.12. Work on A56M yielded an abundance fitness of -0.526 ± 0.12. Variant L65F has an abundance fitness of -0.752 ± 0.29. For I29H, the abundance fitness was -0.389 ± 0.39. For I38S, the abundance fitness was 0.078 ± 0.057. Variant V74E has an abundance fitness of -0.888 ± 0.16. Variant Q28P has an abundance fitness of -0.652 ± 0.097. In the case of V31L, the abundance fitness is reported as 0.087 ± 0.051. Work on N35P yielded an abundance fitness of -0.665 ± 0.12. T75Q gave an abundance fitness of 0.026 ± 0.083. In the case of T58P, the abundance fitness is reported as -0.195 ± 0.054. M43W gave an abundance fitness of -0.168 ± 0.073. Work on V31W yielded an abundance fitness of -0.165 ± 0.072. Work on N35G yielded an abundance fitness of -0.065 ± 0.049. In the case of E32S, the abundance fitness is reported as -0.185 ± 0.052. Work on E25M yielded an abundance fitness of -0.739 ± 0.19. In the case of M1N, the abundance fitness is reported as -0.099 ± 0.28. In the case of N55L, the abundance fitness is reported as -0.004 ± 0.042. V31Q showed an abundance fitness of 0.003 ± 0.077. Variant N27E has an abundance fitness of -0.191 ± 0.13. Work on K47S yielded an abundance fitness of -0.068 ± 0.062. T66G showed an abundance fitness of -0.126 ± 0.046. Work on V49W yielded an abundance fitness of -0.361 ± 0.092. I26R gave an abundance fitness of -0.522 ± 0.11. Work on G9Q yielded an abundance fitness of -0.39 ± 0.099. For R70L, the abundance fitness was -0.82 ± 0.13. Work on N33G yielded an abundance fitness of -0.607 ± 0.061. T66A gave an abundance fitness of -0.14 ± 0.057. In the case of T57H, the abundance fitness is reported as -0.176 ± 0.1. N55T gave an abundance fitness of -0.115 ± 0.087. Work on P34W yielded an abundance fitness of -0.9 ± 0.18.

Variants of: B2
Test: as above
Conditions: Homo sapiens
In the case of V1C, the abundance fitness is reported as -0.072 ± 0.071. V1D showed an abundance fitness of -0.078 ± 0.054. V1F gave an abundance fitness of -0.104 ± 0.058. For V1G, the abundance fitness was 0.002 ± 0.044. V1I showed an abundance fitness of -0.025 ± 0.034. V1K showed an abundance fitness of -0.043 ± 0.43. In the case of V1L, the abundance fitness is reported as -0.047 ± 0.061. Variant V1M has an abundance fitness of -0.065 ± 0.081. In the case of V1N, the abundance fitness is reported as 0.093 ± 0.15. With V1Q the abundance fitness was -0.369 ± 0.15. V1R showed an abundance fitness of -0.37 ± 0.093. V1S showed an abundance fitness of -0.038 ± 0.079. In the case of V1T, the abundance fitness is reported as -0.122 ± 0.12. Work on V1W yielded an abundance fitness of -0.102 ± 0.074. In the case of V1Y, the abundance fitness is reported as -0.083 ± 0.12. Y2A gave an abundance fitness of 0.006 ± 0.052. Work on Y2C yielded an abundance fitness of 0.013 ± 0.062. For Y2D, the abundance fitness was 0.1 ± 0.07. For Y2E, the abundance fitness was 0.048 ± 0.075. Y2F gave an abundance fitness of -0.053 ± 0.054. Variant Y2G has an abundance fitness of 0.069 ± 0.047. For Y2H, the abundance fitness was 0.01 ± 0.061. With Y2I the abundance fitness was 0.004 ± 0.052. With Y2K the abundance fitness was 0.041 ± 0.064. In the case of Y2L, the abundance fitness is reported as -0.052 ± 0.043. For Y2M, the abundance fitness was 0.012 ± 0.065. In the case of Y2N, the abundance fitness is reported as 0.067 ± 0.062.
